Values of other authors in PMC8820802.

Tested on: streptavidin
Details: 50 mM Tris-HCl pH 7.6, 10 mM MgCl2, 100 mM KCl, 10% glycerol, 0.05% NP-40, protease inhibitor; HEK293T lysate on streptavidin-Sepharose, 16 h, 4 C

S1 aptamer
Kd: 79 nM

S1m aptamer
Kd: 29 nM
